Test results: article PMC7476758, “Underground isoleucine biosynthesis pathways in E. coli” (eLife, 2020)

What was measured:
Type in all cases: biochemical, Escherichia coli
[1] = substrate: CCC(=O)SCCNC(=O)CCNC(=O)[C@H](O)C(C)(C)COP(=O)(O)OP(=O)(O)OC[C@H]1O[C@@H](n2cnc3c(N)ncnc32)[C@H](O)[C@@H]1OP(=O)(O)O; experiment: Michaelis-Menten kinetics of purified enzyme, LDH-coupled NADH assay (KM); details: glycyl radical (activated by PFL-AE)
[2] = substrate: O=CO; experiment: as above; details: glycyl radical (activated by PFL-AE)
purified protein [3] = substrate: CCC(=O)SCCNC(=O)CCNC(=O)[C@H](O)C(C)(C)COP(=O)(O)OP(=O)(O)OC[C@H]1O[C@@H](n2cnc3c(N)ncnc32)[C@H](O)[C@@H]1OP(=O)(O)O; experiment: purified protein; details: glycyl radical (activated by PFL-AE)
[4] = substrate: CC(=O)SCCNC(=O)CCNC(=O)[C@H](O)C(C)(C)COP(=O)(O)OP(=O)(O)OC[C@H]1O[C@@H](n2cnc3c(N)ncnc32)[C@H](O)[C@@H]1OP(=O)(O)O; experiment: Michaelis-Menten kinetics of purified enzyme, DTNB assay of released CoA (KM)
[5] = substrate: N[C@@H](CO)C(=O)O; experiment: Michaelis-Menten kinetics of purified enzyme, DTNB assay (KM)
purified protein [6] = substrate: N[C@@H](CCOC(=O)CCC(=O)O)C(=O)O; experiment: purified protein; details: pyridoxal-5'-phosphate

B1: TdcE (2-ketobutyrate formate-lyase) (Escherichia coli K-12) (protein)
chain: MKVDIDTSDKLYADAWLGFKGTDWKNEINVRDFIQHNYTPYEGDESFLAEATPATTELWEKVMEGIRIENATHAPVDFDTNIATTITAHDAGYINQPLEKIVGLQTDAPLKRALHPFGGINMIKSSFHAYGREMDSEFEYLFTDLRKTHNQGVFDVYSPDMLRCRKSGVLTGLPDGYGRGRIIGDYRRVALYGISYLVRERELQFADLQSRLEKGEDLEATIRLREELAEHRHALLQIQEMAAKYGFDISRPAQNAQEAVQWLYFAYLAAVKSQNGGAMSLGRTASFLDIYIERDFKAGVLNEQQAQELIDHFIMKIRMVRFLRTPEFDSLFSGDPIWATEVIGGMGLDGRTLVTKNSFRYLHTLHTMGPAPEPNLTILWSEELPIAFKKYAAQVSIVTSSLQYENDDLMRTDFNSDDYAIACCVSPMVIGKQMQFFGARANLAKTLLYAINGGVDEKLKIQVGPKTAPLMDDVLDYDKVMDSLDHFMDWLAVQYISALNIIHYMHDKYSYEASLMALHDRDVYRTMACGIAGLSVATDSLSAIKYARVKPIRDENGLAVDFEIDGEYPQYGNNDERVDSIACDLVERFMKKIKALPTYRNAVPTQSILTITSNVVYGQKTGNTPDGRRAGTPFAPGANPMHGRDRKGAVASLTSVAKLPFTYAKDGISYTFSIVPAALGKEDPVRKTNLVGLLDGYFHHEADVEGGQHLNVNVMNREMLLDAIEHPEKYPNLTIRVSGYAVRFNALTREQQQDVISRTFTQAL
- Km [1]: 520 ± 81 µM
- Vmax [1]: 2.1 µmol/min/mg
- kcat [1]: 3.2 ± 0.2 s⁻¹
- Km [2]: 20000 ± 3000 µM
- Vmax [2]: 1.8 µmol/min/mg
- kcat [2]: 2.7 ± 0.1 s⁻¹

B2: pyruvate formate-lyase (PFL, PflB) (Escherichia coli K-12) (protein)
chain: SELNEKLATAWEGFTKGDWQNEVNVRDFIQKNYTPYEGDESFLAGATEATTTLWDKVMEGVKLENRTHAPVDFDTAVASTITSHDAGYINKQLEKIVGLQTEAPLKRALIPFGGIKMIEGSCKAYNRELDPMIKKIFTEYRKTHNQGVFDVYTPDILRCRKSGVLTGLPDAYGRGRIIGDYRRVALYGIDYLMKDKLAQFTSLQADLENGVNLEQTIRLREEIAEQHRALGQMKEMAAKYGYDISGPATNAQEAIQWTYFGYLAAVKSQNGAAMSFGRTSTFLDVYIERDLKAGKITEQEAQEMVDHLVMKLRMVRFLRTPEYDELFSGDPIWATESIGGMGLDGRTLVTKNSFRFLNTLYTMGPSPEPNMTILWSEKLPLNFKKFAAKVSIDTSSLQYENDDLMRPDFNNDDYAIACCVSPMIVGKQMQFFGARANLAKTMLYAINGGVDEKLKMQVGPKSEPIKGDVLNYDEVMERMDHFMDWLAKQYITALNIIHYMHDKYSYEASLMALHDRDVIRTMACGIAGLSVAADSLSAIKYAKVKPIRDEDGLAIDFEIEGEYPQFGNNDPRVDDLAVDLVERFMKKIQKLHTYRDAIPTQSVLTITSNVVYGKKTGNTPDGRRAGAPFGPGANPMHGRDQKGAVASLTSVAKLPFAYAKDGISYTFSIVPNALGKDDEVRKTNLAGLMDGYFHHEASIEGGQHLNVNVMNREMLLDAMENPEKYPQLTIRVSGYAVRFNSLTKEQQQDVITRTFTQSM
- Km (purified protein [3]): 830 ± 580 µM
- Vmax (purified protein [3]): 1.1 µmol/min/mg
- kcat (purified protein [3]): 1.7 ± 0.9 s⁻¹
- Km [2]: 69000 ± 11000 µM
- Vmax [2]: 0.59 µmol/min/mg
- kcat [2]: 0.9 ± 0.05 s⁻¹

B3: serine acetyltransferase (CysE) (Escherichia coli K-12) (protein)
chain: MSCEELEIVWNNIKAEARTLADCEPMLASFYHATLLKHENLGSALSYMLANKLSSPIMPAIAIREVVEEAYAADPEMIASAACDIQAVRTRDPAVDKYSTPLLYLKGFHALQAYRIGHWLWNQGRRALAIFLQNQVSVTFQVDIHPAAKIGRGIMLDHATGIVVGETAVIENDVSILQSVTLGGTGKSGGDRHPKIREGVMIGAGAKILGNIEVGRGAKIGAGSVVLQPVPPHTTAAGVPARIVGKPDSDKPSMDMDQHFNGINHTFEYGDGI
- Km [4]: 600 ± 200 µM
- Km [5]: 800 ± 300 µM

B4: cystathionine γ-synthase (MetB) (Escherichia coli K-12) (protein)
chain: MTRKQATIAVRSGLNDDEQYGCVVPPIHLSSTYNFTGFNEPRAHDYSRRGNPTRDVVQRALAELEGGAGAVLTNTGMSAIHLVTTVFLKPGDLLVAPHDCYGGSYRLFDSLAKRGCYRVLFVDQGDEQALRAALAEKPKLVLVESPSNPLLRVVDIAKICHLAREVGAVSVVDNTFLSPALQNPLALGADLVLHSCTKYLNGHSDVVAGVVIAKDPDVVTELAWWANNIGVTGGAFDSYLLLRGLRTLVPRMELAQRNAQAIVKYLQTQPLVKKLYHPSLPENQGHEIAARQQKGFGAMLSFELDGDEQTLRRFLGGLSLFTLAESLGGVESLISHAATMTHAGMAPEARAAAGISETLLRISTGIEDGEDLIADLENGFRAANKG
- Km (purified protein [6]): 600 ± 80 µM
